The target in assay [1] is T1, Peptide_012 (human).
T1 construct: 15-mer on microarray; not native form, includes recombinant insert region
T1 peptide: HHHHHHHVKQIESKT
Description: peptide microarray, head 0.08 ug (text 0.008 ug/mL).

In assay [2] the target is T2, Peptide_019 (human).
T2 construct: 15-mer of hTrx1 on microarray
T2 peptide: VKQIESKTAFQEALD
The assay is described as above.

Assay [3] deals with T3, Peptide_086 (human).
T3 construct: 15-mer of hTrx1 on microarray
T3 peptide: CEVKCMPTFQFFKKG
The description is as above.

Assay [4] has as its target T4, Peptide_021 (human).
T4 construct: 15-mer of hTrx1 on microarray
T4 peptide: QIESKTAFQEALDAA
Described as above.

Assay [5] addresses T5, Peptide_085 (human).
T5 construct: 15-mer of hTrx1 on microarray
T5 peptide: ECEVKCMPTFQFFKK
The description is as above.

The target of assay [6] is T6, Peptide_015 (human).
T6 construct: 15-mer on microarray; not native form, includes recombinant insert region
T6 peptide: HHHHVKQIESKTAFQ
Described as above.

The target in assay [7] is T7, Peptide_014 (human).
T7 construct: 15-mer on microarray; not native form, includes recombinant insert region
T7 peptide: HHHHHVKQIESKTAF
The assay is described as above.

In assay [8] the target is T8, Peptide_022 (human).
T8 construct: 15-mer of hTrx1 on microarray
T8 peptide: IESKTAFQEALDAAG
Described as above.

For assay [9], the target named is T9, Peptide_084 (human).
T9 construct: 15-mer of hTrx1 on microarray
T9 peptide: SECEVKCMPTFQFFK
The assay is described as above.

A further assay has as its target T10, Peptide_095 (human).
T10 construct: 15-mer of hTrx1 on microarray
T10 peptide: QFFKKGQKVGEFSGA
Description: peptide microarray, 0.04 ug/mL. How it is done:
(§1) 5, 1, 0.2, 0.04, 0.008 and 0.0016 μg/mL serial dilutions were incubated on a single multi-well microarray slide at 30° C. for 1 hour. The slide includes 21 individual mini-arrays (one mini-array per sample dilution).
(§2) DyLight 650 was used as a label. False-positive binding to a peptide was evaluated by performing one additional control incubation in which only a secondary antibody was applied on the same microarray slide. Before performing each step, the microarrays were washed with a washing buffer.

Assay [10] deals with T1, Peptide_012. The assay can be described thus: peptide microarray, 0.04 ug/mL. How it is done: as §1, §2
In the next assay the target is T11, Peptide_024 (human).
T11 construct: 15-mer of hTrx1 on microarray
T11 peptide: SKTAFQEALDAAGDK
Description: peptide microarray, 0.04 ug/mL. How it is done:
as §1, §2

Assay [11] concerns the target T2, Peptide_019. The assay can be described thus: peptide microarray, 0.04 ug/mL. How it is done: as §1, §2
Assay [12] addresses T3, Peptide_086. The assay can be described thus: peptide microarray, 0.04 ug/mL. How it is done:
as §1, §2

The target in assay [13] is T4, Peptide_021. Description: peptide microarray, 0.04 ug/mL. How it is done: as §1, §2
A further assay concerns the target T12, Peptide_013 (human).
T12 construct: 15-mer on microarray; not native form, includes recombinant insert region
T12 peptide: HHHHHHVKQIESKTA
The assay can be described thus: peptide microarray, 0.04 ug/mL. How it is done: as §1, §2

For another assay, the target named is T13, Peptide_045 (human).
T13 construct: 15-mer of hTrx1 on microarray
T13 peptide: SATWCGPCKMIKPFF
Description: peptide microarray, 0.04 ug/mL. How it is done:
as §1, §2

Another assay deals with T14, Peptide_025 (human).
T14 construct: 15-mer of hTrx1 on microarray
T14 peptide: KTAFQEALDAAGDKL
Description: peptide microarray, 0.04 ug/mL. How it is done: as §1, §2

Assay [14] has as its target T5, Peptide_085. The assay can be described thus: peptide microarray, 0.04 ug/mL. How it is done:
as §1, §2

Another assay has as its target T15, Peptide_020 (human).
T15 construct: 15-mer of hTrx1 on microarray
T15 peptide: KQIESKTAFQEALDA
Description: peptide microarray, 0.04 ug/mL. How it is done: as §1, §2

A further assay concerns the target T16, Peptide_092 (human).
T16 construct: 15-mer of hTrx1 on microarray
T16 peptide: PTFQFFKKGQKVGEF
The assay can be described thus: peptide microarray, 0.04 ug/mL. How it is done:
as §1, §2

Assay [15] has as its target T6, Peptide_015. Description: peptide microarray, 0.04 ug/mL. How it is done:
as §1, §2

Another assay deals with T17, Peptide_051 (human).
T17 construct: 15-mer of hTrx1 on microarray
T17 peptide: PCKMIKPFFHSLSEK
Description: peptide microarray, 0.04 ug/mL. How it is done: as §1, §2

The target of a further assay is T18, Peptide_023 (human).
T18 construct: 15-mer of hTrx1 on microarray
T18 peptide: ESKTAFQEALDAAGD
The assay can be described thus: peptide microarray, 0.04 ug/mL. How it is done: as §1, §2

For assay [16], the target named is T7, Peptide_014. The assay can be described thus: peptide microarray, 0.04 ug/mL. How it is done:
as §1, §2

A further assay deals with T19, Peptide_018 (human).
T19 construct: 15-mer on microarray; not native form, includes recombinant insert region; also called HVKQIESKTAFQEAL
T19 peptide: HVKQIESKTAFQEAL
Description: peptide microarray, 0.04 ug/mL. How it is done: as §1, §2

Assay [17] deals with T8, Peptide_022. The assay can be described thus: peptide microarray, 0.04 ug/mL. How it is done: as §1, §2
For assay [18], the target named is T9, Peptide_084. The assay can be described thus: peptide microarray, 0.04 ug/mL. How it is done: as §1, §2
The target in assay [19] is T20, Peptide_004 (human).
T20 construct: 15-mer on microarray; not native form, recombinant insert region
T20 peptide: AADVHSQHHHHHHHH
Description: peptide microarray, head 0.08 ug (text 0.008 ug/mL).

For assay [20], the target named is T21, human thioredoxin-1 (Trx1) (human, UniProt P10599 1-105).
T21 construct: also called hTrx1; hTRX1
T21 sequence (looked up): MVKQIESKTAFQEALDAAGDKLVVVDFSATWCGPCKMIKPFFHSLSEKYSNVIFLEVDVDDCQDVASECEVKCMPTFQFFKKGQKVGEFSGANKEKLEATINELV
The assay can be described thus: one site - total fit (Prism) of the ELISA of panel (a); the cell has no unit, the concentrations of panel (a) are in nM; paragraph 183 prints it rounded as 1.1x10^-11 [b]. How it is done:
100 μl of a coating buffer and 100 ng of Trx1 were mixed and dispensed to each well, and then reacted at 4° C. for 16 hours or more. After the reaction solution was removed, 200 μl of PBSA was dispensed to each well and reacted at 37° C. for 120 minutes. […] After the reaction solution was removed, washing was performed by dispensing 200 μl of a washing buffer to each well. The above-described process was performed two times.
After the reaction solution was removed, washing was performed by dispensing 200 μl of a washing buffer to each well. The above-described process was performed three times.
Background: In an ELISA, binding on a coated surface is turned into a signal by an enzyme label.

For assay [21], the target named is T20, Peptide_004. The assay can be described thus: peptide microarray, 0.04 ug/mL. How it is done:
as §1, §2

The next assay addresses T22, Peptide_005 (human).
T22 construct: 15-mer on microarray; not native form, recombinant insert region
T22 peptide: ADVHSQHHHHHHHHV
The assay can be described thus: peptide microarray, 0.04 ug/mL. How it is done:
as §1, §2

Results on two molecules are retold here after patent publication US20240192215A1 (E AND S HEALTHCARE, published 2024).

B1: monoclonal antibody B264 (antibody, mouse IgG1, kappa, V domains shown)
VH: QVQLQQSGAELARPGASVKMSCKASGYTFTSYTMHWVKQRPGQGLEWIGYINPTSDYTNYNQKFKDKATLTADKSSSTAYMQLSSLTSEDSAVYFCASEGGFLYYFDYWGQGTTLTVSS
VL: DVLMTQTPLSLPVSLGDQASISCRSSQSIVHSNGNTYLEWYLQKPGQSPKLLIYKVSNRFSGVPDRFSGSGSGTDFTLKISRVEAEDLGVYYCFQGSHVPYTFGGGTKLEIKR
notes: also called AB264; B264 (Trx1-mIgG1)
For B1, the “signal (blank-control = 1)” value stood at 0.88 in the assay with Peptide_012 [1]; 1.02 with Peptide_019 [2]; 1.02 with Peptide_086 [3]; 0.84 with Peptide_021 [4]; 0.9 with Peptide_085 [5]; 0.79 with Peptide_015 [6]. For the same molecule, the “signal (blank-control = 1)” value in the assay with Peptide_014 [7] is 1.14; in the assay with Peptide_022 [8], 1; with Peptide_084 [9], 1.33; in the assay with Peptide_095 it was 1.66; with Peptide_012 [10], 1.15; in the assay with Peptide_024, 2.38. Further, the “signal (blank-control = 1)” value with Peptide_019 [11] worked out at 1.2; in the assay with Peptide_086 [12] it was 1.14; with Peptide_021 [13], 1.35; in the assay with Peptide_013 it was 1.4; in the assay with Peptide_045 it was 4.59; in the assay with Peptide_025, 2.39. Besides, the “signal (blank-control = 1)” value with Peptide_085 [14] came out at 1.48; with Peptide_020, 1.33; in the assay with Peptide_092 it was 5.18; in the assay with Peptide_015 [15], 1.69; with Peptide_051, 1.41; with Peptide_023, 1.15. In addition, the “signal (blank-control = 1)” value in the assay with Peptide_014 [16] was 1.49; with Peptide_018, 1.64; in the assay with Peptide_022 [17] it was 2.89; with Peptide_084 [18] it was 1.83.

B2: monoclonal antibody B266-1 (antibody, human IgG1)
light: QIVLTQSPAIMSASPGEKVTMTCSASSRISYMYWYQQKPGTSPKRWIYDTSKLASGVPARFSGSGSGTSYSLTISTMEAEDAATYYCHQRSSYPTFGAGTKLELKSVAAPSVFIFPPSDEQLKSGTASVVCLLNNFYPREAKVQWKVDNALQSGNSQESVTEQDSKDSTYSLSSTLTLSKADYEKHKVYACEVTHQGLSSPVTKSFNRGEC
heavy: not shown
notes: B266 with the Fc part changed to human IgG1; also called B266-1 (Trx1-hIgG1); B266-1 (hTrx1-hIgG1)
For orientation: Kd means a measure of binding affinity in units of concentration. Consider B2, for which the “signal (blank-control = 1)” value came out at 1 with Peptide_004 [19], 1.14 in the assay with Peptide_004 [21] and 1.6 with Peptide_005. This molecule also returned a Kd in [20] of 0.0112 nM.
